Assay results: publication PMC11362559

Molecular target: biotinylated I-A^b protein (SPR) (mouse)
Assay: SPR

Substance: mLAG3^ΔL1 (Loop 1 deletion construct of mouse LAG3) (from UniProt Q61790) (receptor)
- Kd: 14.8 µM
